Data on one substance can be found in article PMC2998059.

This experiment deals with GST-PC1 C-terminus deletion mutant SH3. The experiment in a line: pull-down.

On to “myc-tagged QLα12 (constitutively active, GTPase-deficient Gα12) (from UniProt P27600 48-379) (natural protein)”, for which the binding relative to PC1-FLCT came to 50%.
